In patent US20230365658A1 (LAWRENCE LIVERMORE NATIONAL SECURITY, published 2023):

Key:
[1] = molecular target: T1, SARS-CoV-2 spike (S) glycoprotein, Omicron BA.2 (SARS-CoV-2, UniProt P0DTC2 14-1273); experiment: cell-based or functional assay
[2] = molecular target: T2, SARS-CoV-2 spike (S) glycoprotein, Omicron BA.1 (SARS-CoV-2, UniProt P0DTC2 14-1273); experiment: cell-based or functional assay
[3] = molecular target: T3, SARS-CoV-2 spike (S) glycoprotein, Omicron BA.1.1 (SARS-CoV-2, UniProt P0DTC2 14-1273); experiment: cell-based or functional assay
[4] = molecular target: T4, SARS-CoV-2 Spike-RBD, Delta (SARS-CoV-2, UniProt P0DTC2 319-541); experiment: Gyros full-curve immunoassay, mAb titrated on RBD, relative binding (FI)
T4 construct: domain: RBD; also called Delta RBD

[5] = molecular target: T4, SARS-CoV-2 Spike-RBD, Delta; experiment: Gyrolab immunoassay, IgG titrated on Spike-RBD, relative binding (FI)
[6] = molecular target: T3, SARS-CoV-2 spike (S) glycoprotein, …; experiment: cell-based or functional assay; remark: listed apart in the source
[7] = molecular target: T1, SARS-CoV-2 spike (S) glycoprotein, …; experiment: cell-based or functional assay; remark: listed apart in the source
[8] = molecular target: T5, SARS-CoV-2 spike (S) glycoprotein, Omicron BA.4 (SARS-CoV-2, UniProt P0DTC2 14-1273); experiment: cell-based or functional assay
[9] = molecular target: T6, SARS-CoV-2 spike (S) glycoprotein, D614G (SARS-CoV-2, UniProt P0DTC2 14-1273); experiment: cell-based or functional assay
[10] = molecular target: T2, SARS-CoV-2 spike (S) glycoprotein, …; experiment: cell-based or functional assay; remark: listed apart in the source
[11] = molecular target: T3, SARS-CoV-2 spike (S) glycoprotein, …; experiment: cell-based or functional assay; remark: listed apart in the source
[12] = molecular target: SARS-CoV-2 spike (S) glycoprotein, Delta (B.1.617.2) (SARS-CoV-2, UniProt P0DTC2 14-1273); experiment: cell-based or functional assay
[13] = molecular target: T5, SARS-CoV-2 spike (S) glycoprotein, …; experiment: cell-based or functional assay; remark: listed apart in the source
[14] = molecular target: SARS-CoV-2 spike (S) glycoprotein, Omicron BA.5.5 (SARS-CoV-2, UniProt P0DTC2 14-1273); experiment: cell-based or functional assay
[15] = molecular target: T2, SARS-CoV-2 spike (S) glycoprotein, …; experiment: cell-based or functional assay; remark: listed apart in the source
[16] = molecular target: T3, SARS-CoV-2 spike (S) glycoprotein, …; experiment: cell-based or functional assay; remark: listed apart in the source
[17] = molecular target: T1, SARS-CoV-2 spike (S) glycoprotein, …; experiment: cell-based or functional assay; remark: listed apart in the source
[18] = molecular target: T5, SARS-CoV-2 spike (S) glycoprotein, …; experiment: cell-based or functional assay; remark: listed apart in the source
[19] = molecular target: SARS-CoV-2 spike (S) glycoprotein, Omicron BA.2.12.1 (SARS-CoV-2, UniProt P0DTC2 14-1273); experiment: cell-based or functional assay
[20] = molecular target: T6, SARS-CoV-2 spike (S) glycoprotein, D614G; experiment: cell-based or functional assay; remark: listed apart in the source
[21] = molecular target: SARS-CoV-2 spike (S) glycoprotein, Omicron BA.2.75 (SARS-CoV-2, UniProt P0DTC2 14-1273); experiment: cell-based or functional assay
[22] = molecular target: T2, SARS-CoV-2 spike (S) glycoprotein, …; experiment: cell-based or functional assay; remark: listed apart in the source
[23] = molecular target: SARS-CoV-2 spike (S) glycoprotein, Omicron BA.5 (SARS-CoV-2, UniProt P0DTC2 14-1273); experiment: cell-based or functional assay

Binder	pseudovirus neutralization IC50 [1]	pseudovirus neutralization IC50 [2]	pseudovirus neutralization IC50 [3]	EC50 (read off the curve) [4]	normalized pseudoneutralization IC50 [6]	normalized pseudoneutralization IC50 [7]	normalized pseudoneutralization IC50 [8]	normalized pseudoneutralization IC50 [9]	normalized pseudoneutralization IC50 [10]	further results
mAb_RBD_2130_FAB_20211231_00199 (antibody, V domains shown) VH: EVQLVESGGGLVKPGGSLRLSCAASGFTFRDVWMSWVRQAPGKGLEWVGRIKSKIDGGTTDYAAPVKGRFTISRDDSKNTLYLQMNSLKTEDTAVYYCTTAGSYYYDTVGPGLPEGKFDYWGQGTLVTVSS VL: not shown	1.11 ng/mL	556 ng/mL								
mAb_v2130Vanderbilt_184_20220114_00111 (antibody, V domains shown, also called LLNL198) VH: EVQLVESGGGLVKPGGSLRLSCAASGFTFRDVWMSWVRQAPGKGLEWVGRIKSKIDGGTTDYAAPVKGRFTISRDDSKNTLYLQMNSLKTEDTAVYYCTTAGSYYYDTVGPELPEGKFDYWGQGTLVTVSS VL: not shown	0.0392 ng/mL	118 ng/mL	603 ng/mL	~1000 ng/mL	4030 ng/mL	0.162 ng/mL	34.3 ng/mL	3.02 ng/mL	32 ng/mL	EC50 (read off the curve) [5]: ~1000 ng/mL
v2130_upsample_20220121_00354 (antibody, V domains shown) VH: EVQLVESGGGLVKPGGSLRLSCAASGFTFRDVWMSWVRQAPGKGLEWVGRIKSKIDGGTTDYAAPVKGRFTISRDDSKNTLYLQMNSLKTEDTAVYYCTTAGSYYYDTRGPELPEGKFDYWGQGTLVTVSS VL: not shown	0.515 ng/mL	0.178 ng/mL	0.475 ng/mL	~400 ng/mL						authentic virus neutralization IC50 (FRNT) [11]: 9.65 ng/mL; authentic virus neutralization IC50 (FRNT) [12]: 6.23 ng/mL; authentic virus neutralization IC50 (FRNT) [13]: 3.04 ng/mL; authentic virus neutralization IC50 (FRNT) [14]: 2.82 ng/mL; authentic virus neutralization IC50 (FRNT) [15]: 4.23 ng/mL
v2130_upsample_20220121_00298 (antibody, V domains shown) VH: EVQLVESGGGLVKPGGSLRLSCAASGFTFRDVWMSWVRQAPGKGLEWVGRIKSKEDGGTTDYAAPVKGRFTISRDDSKNTLYLQMNSLKTEDTAVYYCTTAGSYYHDTVGPGLPEGKFDYWGQGTLVTVSS VL: not shown	566 ng/mL	626 ng/mL								
mAb_v2130JustStableLines_20220111_00002 (antibody, V domains shown, also called LLNL010) VH: EVQLVESGGGLVKPGGSLRLSCAASGFTFRDVWMSWVRQAPGKGLEWVGRIKSKDDGGTTDYAAPVKGRFTISRDDSKNTLYLQMNSLKTEDTAVYYCTTAGSYYYDTVGPGLPEGKFDYWGQGTLVTVSS VL: not shown	1.15 ng/mL	339 ng/mL		~2000 ng/mL	> 10000 ng/mL	1.47 ng/mL	4.69 ng/mL	4.92 ng/mL	34.8 ng/mL	EC50 (read off the curve) [5]: ~2000 ng/mL
mAb_v2130Vanderbilt_184_20220114_00112 (antibody, V domains shown) VH: EVQLVESGGGLVKPGGSLRLSCAASGFTFRDVWMSWVRQAPGKGLEWVGRIKSKIDGGTTDYAAPVKGRFTISRDDSKNTLYLQMNSLKTEDTAVYYCTTAGSYYYDTVGPELPEGKFDYWGQGTLVTVSS VL: not shown	0.852 ng/mL	1.14 ng/mL	3.21 ng/mL		6.25 ng/mL	0.985 ng/mL	0.779 ng/mL	4.08 ng/mL	2.56 ng/mL	authentic virus neutralization IC50 (FRNT, Vero-TMPRSS2) [16]: < 10 ng/mL; authentic virus neutralization IC50 (FRNT, Vero-TMPRSS2) [17]: < 10 ng/mL; authentic virus neutralization IC50 (FRNT, Vero-TMPRSS2) [18]: < 10 ng/mL; authentic virus neutralization IC50 (FRNT, Vero-TMPRSS2) [19]: < 10 ng/mL; authentic virus neutralization IC50 (FRNT, Vero-TMPRSS2) [20]: < 10 ng/mL; fold improvement of pseudoviral neutralization over COV2-2130 [21]: 90 fold; pseudoviral neutralization IC50 [21]: 1.9 ng/mL; authentic virus neutralization IC50 (FRNT, Vero-TMPRSS2) [22]: < 10 ng/mL; authentic virus neutralization IC50 (FRNT, Vero-TMPRSS2) [23]: < 10 ng/mL; authentic virus neutralization IC50 (FRNT) [11]: 39.2 ng/mL; authentic virus neutralization IC50 (FRNT) [12]: 33.9 ng/mL; authentic virus neutralization IC50 (FRNT) [13]: 7.47 ng/mL; authentic virus neutralization IC50 (FRNT) [14]: 5.29 ng/mL; authentic virus neutralization IC50 (FRNT) [15]: 5.53 ng/mL
v2130_upsample_20220121_00009 (antibody, V domains shown) VH: EVQLVESGGGLVKPGGSLRLSCAASGFTFRDVWMSWVRQAPGKGLEWVGRIKSKIDGGTTDYAAPVKGRFTISRDDSKNTLYLQMNSLKTEDTAVYYCTTAGSYYDDTVGPGLPEGKIDYWGQGTLVTVSS VL: not shown										binding result [4]: no binding (tested: about 150 ug/ml)
